Assay results from publication PMC6351828.
Changes are numbered by the printed parent chain. Names may count otherwise.

Tests used:
[1] = biological target: Purified recombinant LC3 protein, Q9GZQ8; experiment: ELISA; settings: chain shown with the change, read off a plot
[2] = biological target: LC3‐GFP, Q9GZQ8; experiment: co-immunoprecipitation (anti-GFP agarose) with quantified immunoblot; settings: chain shown with the change; HeLa cells co-transfected with LC3-GFP and DISC1-Flag constructs; parent: 1.0; read off a plot

## PGSHSAFTSSAAAARLSLGS [DISC1 FSFI peptide (a.a.200–219) F210A; S211A; F212A; I213A]
[1]; LC3B 10 nM, parent: est. 0.68
  response: 0.1 OD (450 nm)
[1]; LC3B 50 nM, parent: est. 1.3
  response: 0.12 OD (450 nm)
[1]; LC3B 100 nM, parent: est. 2.4
  response: 0.12 OD (450 nm)

B1: Disrupted‐in‐schizophrenia‐1 (DISC1)‐Flag, wild type, Q9NRI5 F210A; S211A; F212A; I213A (protein)
chain: MPGGGPQGAPAAAGGGGVSHRAGSRDCLPPAACFRRRRLARRPGYMRSSTGPGIGFLSPAVGTLFRFPGGVSGEESHHSESRARQCGLDSRGLLVRSPVSKSAAAPTVTSVRGTSAHFGIQLRGGTRLPDRLSWPCGPGSAGWQQEFAAMDSSETLDASWEAACSDGARRVRAAGSLPSAELSSNSCSPGCGPEVPPTPPGSHSAFTSSAAAARLSLGSAGERGEAEGCPPSREAESHCQSPQEMGAKAASLDGPHEDPRCLSRPFSLLATRVSADLAQAARNSSRPERDMHSLPDMDPGSSSSLDPSLAGCGGDGSSGSGDAHSWDTLLRKWEPVLRDCLLRNRRQMEVISLRLKLQKLQEDAVENDDYDKAETLQQRLEDLEQEKISLHFQLPSRQPALSSFLGHLAAQVQAALRRGATQQASGDDTHTPLRMEPRLLEPTAQDSLHVSITRRDWLLQEKQQLQKEIEALQARMFVLEAKDQQLRREIEEQEQQLQWQGCDLTPLVGQLSLGQLQEVSKALQDTLASAGQIPFHAEPPETIRSLQERIKSLNLSLKEITTKVCMSEKFCSTLRKKVNDIETQLPALLEAKMHAISGNHFWTAKDLTEEIRSLTSEREGLEGLLSKLLVLSSRNVKKLGSVKEDYNRLRREVEHQETAYETSVKENTMKYMETLKNKLCSCKCPLLGKVWEADLEACRLLIQSLQLQEARGSLSVEDERQMDDLEGAAPPIPPRLHSEDKRKTPLKVLEEWKTHLIPSLHCAGGEQKEESYILSAELGEKCEDIGKKLLYLEDQLHTAIHSHDEDLIQSLRRELQMVKETLQAMILQLQPAKEAGEREAAASCMTAGVHEAQA
[2]
  ratio to parent: 0.21

B2: Disrupted‐in‐schizophrenia‐1 (DISC1)‐Flag, wild type, Q9NRI5 W327A; D328A; T329A; L330A (protein)
chain: B1 chain with A210F, A211S, A212F, A213I, W326A, D327A, T328A, L329A
[2]
  ratio to parent: 0.9

B3: Disrupted‐in‐schizophrenia‐1 (DISC1)‐Flag, wild type, Q9NRI5 Y646A; N647A; R648A; L649A (protein)
chain: B1 chain with A210F, A211S, A212F, A213I, Y646A, N647A, R648A, L649A
[2]
  ratio to parent: 1.1
